Test results from patent US20220041658A1 (PROTAGONIST THERAPEUTICS, published 2022).
Positions of bridges follow the written chain, without caps; N, C: chain ends. Non-standard residues stand in square brackets, D forms with d. Trp(7-Me) = Cc1cccc2c(C[C@H](N)C(=O)O)c[nH]c12; 2Nal = N[C@@H](Cc1ccc2ccccc2c1)C(=O)O; AEF = NCCOc1ccc(C[C@H](N)C(=O)O)cc1; Cit = NC(=O)NCCC[C@H](N)C(=O)O; αMeL = CC(C)C[C@](C)(N)C(=O)O; Pen = CC(C)(S)[C@H](N)C(=O)O; αMeK = C[C@](N)(CCCCN)C(=O)O; βAla = NCCC(=O)O

T1: interleukin-23 receptor (IL-23R) (human, UniProt Q5VWK5 24-629)
T1 sequence (looked up): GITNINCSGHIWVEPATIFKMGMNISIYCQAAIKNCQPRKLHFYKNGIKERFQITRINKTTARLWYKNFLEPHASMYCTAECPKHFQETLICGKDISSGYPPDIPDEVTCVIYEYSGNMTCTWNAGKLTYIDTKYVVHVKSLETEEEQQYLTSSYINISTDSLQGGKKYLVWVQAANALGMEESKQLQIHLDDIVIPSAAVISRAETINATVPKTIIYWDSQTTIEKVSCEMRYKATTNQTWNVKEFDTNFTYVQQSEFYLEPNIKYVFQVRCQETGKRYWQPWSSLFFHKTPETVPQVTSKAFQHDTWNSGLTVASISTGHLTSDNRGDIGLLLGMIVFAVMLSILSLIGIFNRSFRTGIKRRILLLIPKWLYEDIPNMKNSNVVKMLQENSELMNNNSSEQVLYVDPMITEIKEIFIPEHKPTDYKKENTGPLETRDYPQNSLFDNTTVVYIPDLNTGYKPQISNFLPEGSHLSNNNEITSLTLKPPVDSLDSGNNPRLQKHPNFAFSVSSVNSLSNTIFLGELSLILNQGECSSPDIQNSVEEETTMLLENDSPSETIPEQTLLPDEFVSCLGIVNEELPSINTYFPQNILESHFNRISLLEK


Assays:
[1] = biological target: T1, interleukin-23 receptor (IL-23R); assay: cell-based or functional assay
[2] = biological target: T1, interleukin-23 receptor (IL-23R); assay: cell-based or functional assay; remark: listed apart in the source

Binder	pStat3 HTRF IC50 [1] [nM]	NK Cell Assay IC50 [2] [nM]
XNTXQXXXXKLX (Ac-[Pen]-NT-[W(7-Me)]-Q-[Pen]-Phe[4-(2-aminoethoxy)]-[2-Nal]-[a-MeLeu]-[Lys(Ac)]-L-[bA]-NH2; Pen-Pen disulfide) [Peptide of SEQ ID NO: 208]	5.39	7.8
XNTXQXXXXKNX (Ac-[Pen]-NT-[W(1-Me)]-Q-[Pen]-Phe[4-(2-aminoethoxy)]-[2-Nal]-[a-MeLys]-[Lys(Ac)]-N-[bA]-NH2; Pen-Pen disulfide) [Peptide of SEQ ID NO: 232]	4.5	9
XNTXQXXXXKTX (Ac-[Pen]-NT-[W(7-Me)]-Q-[Pen]-Phe[4-(2-aminoethoxy)]-[2-Nal]-[a-MeLeu]-[Lys(Ac)]-T-[bA]-NH2; Pen-Pen disulfide) [Peptide of SEQ ID NO: 217]	1.61	13.3
XNTXKXXXXKNF (Ac-[Pen]-NT-[W(7-Me)]-[Lys(Ac)]-[Pen]-Phe[4-(2-aminoethoxy)]-[2-Nal]-[a-MeLys]-[Lys(Ac)]-N-[(D)Phe]-NH2; Pen-Pen disulfide) [Peptide of SEQ ID NO: 258]	0.92	9.7
XNTXQXXXXKXX (Ac-[Pen]-NT-[W(7-Me)]-Q-[Pen]-Phe[4-(2-aminoethoxy)]-[2-Nal]-[a-MeLeu]-[Lys(Ac)]-[a-MeLeu]-[bA]-NH2; Pen-Pen disulfide) [Peptide of SEQ ID NO: 225]	56.7	114
XNTXKXXXXXNL (not fully specified; Ac-[Pen]-N-T-[W(7-Me)]-[Lys(Ac)]-[Pen]-Phe[4-(2-aminoethoxy)]-[2-Nal]-[a-MeLys]-[Lys(benzyl)]-N-[(D)Leu]-NH2; Pen-Pen disulfide) [Peptide of SEQ ID NO: 359]	0.725	4.97
Ac-[Pen]NT[Trp(7-Me)][Cit][Pen][AEF][2Nal][αMeL]K(Ac)N[βAla]-NH2 (disulfide 1-6) [Peptide of SEQ ID NO: 227]	0.702	2.95
XNTXQXXXXXNX (Ac-[Pen]-NT-[W(7-Me)]-Q-[Pen]-Phe[4-(2-aminoethoxy)]-[2-Nal]-[a-MeLys]-[Aib]-N-[bA]-NH2; Pen-Pen disulfide) [Peptide of SEQ ID NO: 236]	5.21	5.82
Ac-[Pen][Cit]T[Trp(7-Me)]Q[Pen][AEF][2Nal][αMeK]K(Ac)N[βAla]-NH2 (disulfide 1-6; SMILES CC(=O)NCCCC[C@H](NC(=O)[C@](C)(CCCCN)NC(=O)[C@H](Cc1ccc2ccccc2c1)NC(=O)[C@H](Cc1ccc(OCCN)cc1)NC(=O)[C@H]1NC(=O)[C@H](CCC(N)=O)NC(=O)[C@H](Cc2c[nH]c3c(C)cccc23)NC(=O)[C@H]([C@@H](C)O)NC(=O)[C@H](CCCNC(N)=O)NC(=O)[C@@H](NC(C)=O)C(C)(C)SSC1(C)C)C(=O)N[C@@H](CC(N)=O)C(=O)NCCC(N)=O) [Peptide of SEQ ID NO: 238]	1.06	2.99
XNTXKXXXXXNL (Ac-[Pen]-N-T-[W(7-Me)]-[Lys(Ac)]-[Pen]-Phe[4-(2-aminoethoxy)]-[2-Nal]-[a-MeLys]-[Lys(trifluoropropionic)]-N-[(D)Leu]-NH2; Pen-Pen disulfide) [Peptide of SEQ ID NO: 360]	0.568	1.1
XNTXKXXXXKNK (Ac-[Pen]-NT-[W(7-Me)]-[Lys(Ac)]-[Pen]-Phe[4-(2-aminoethoxy)]-[2-Nal]-[a-MeLys]-[Lys(Ac)]-N-[(D)Lys]-NH2; Pen-Pen disulfide) [Peptide of SEQ ID NO: 252]	0.338	3.32
XNTXQXXXXKAX (Ac-[Pen]-NT-[W(7-Me)]-Q-[Pen]-Phe[4-(2-aminoethoxy)]-[2-Nal]-[a-MeLeu]-[Lys(Ac)]-[(D)Ala]-[bA]-NH2; Pen-Pen disulfide) [Peptide of SEQ ID NO: 209]	9.84	30.1
XNTXKXXXXKNL (Ac-[Pen]-NT-[W(7-Me)]-[Lys(Ac)]-[Pen]-Phe[4-(2-aminoethoxy)]-[2-Nal]-[a-MeLys]-[Lys(Ac)]-N-[(D)Leu]-NH2; Pen-Pen disulfide) [Peptide of SEQ ID NO: 245]	0.51	2.7
XNTXKXXXXKNV (Ac-[Pen]-NT-[W(7-Me)]-[Lys(Ac)]-[Pen]-Phe[4-(2-aminoethoxy)]-[2-Nal]-[a-MeLys]-[Lys(Ac)]-N-[(D)Val]-NH2; Pen-Pen disulfide) [Peptide of SEQ ID NO: 251]	0.986	8.19
RXQTXQCXXXENX (Ac-[(D)Arg]-Abu-Q-T-[W(7-Me)]-Q-C-Phe[4-(2-aminoethoxy)]-[2-Nal]-[THP]-E-N-[bA]-NH2; Abu-Cys thioether) [Peptide of SEQ ID NO: 203]	1.84	2.3
XNTXQXXXXKAX (Ac-[Pen]-NT-[W(7-Me)]-Q-[Pen]-Phe[4-(2-aminoethoxy)]-[2-Nal]-[a-MeLeu]-[Lys(Ac)]-A-[bA]-NH2; Pen-Pen disulfide) [Peptide of SEQ ID NO: 207]	1.46	8.4
Ac-[Pen]NT[Trp(7-Me)][Cit][Pen][AEF][2Nal][αMeK]K(Ac)N[dS]-NH2 (disulfide 1-6; SMILES CC(=O)NCCCC[C@H](NC(=O)[C@](C)(CCCCN)NC(=O)[C@H](Cc1ccc2ccccc2c1)NC(=O)[C@H](Cc1ccc(OCCN)cc1)NC(=O)[C@H]1NC(=O)[C@H](CCCNC(N)=O)NC(=O)[C@H](Cc2c[nH]c3c(C)cccc23)NC(=O)[C@H]([C@@H](C)O)NC(=O)[C@H](CC(N)=O)NC(=O)[C@@H](NC(C)=O)C(C)(C)SSC1(C)C)C(=O)N[C@@H](CC(N)=O)C(=O)N[C@H](CO)C(N)=O) [Peptide of SEQ ID NO: 261]	0.522	4.87
XNTXKXXXXKNX (Ac-[Pen]-NT-[W(7-Me)]-[Lys(Ac)]-[Pen]-Phe[4-(2-aminoethoxy)]-[2-Nal]-[a-MeLys]-[Lys(Ac)]-N-[bA]-NH2; Pen-Pen disulfide) [Peptide of SEQ ID NO: 242]	0.641	2.37
XNTXQXXXXKGX (Ac-[Pen]-NT-[W(7-Me)]-Q-[Pen]-Phe[4-(2-aminoethoxy)]-[2-Nal]-[a-MeLeu]-[Lys(Ac)]-G-[bA]-NH2; Pen-Pen disulfide) [Peptide of SEQ ID NO: 205]	4.46	16.6
XNTXQXXXXKNX (Ac-[Pen]-NT-[W(7-Me)]-Q-[Pen]-Phe[4-(2-aminoethoxy)]-[2-Nal]-[a-MeLys]-[Lys(Ac)]-N-[bA]-NH2; Pen-Pen disulfide) [Peptide of SEQ ID NO: 202]	1.1	3.49
XNTXQXXXXKHX (Ac-[Pen]-NT-[W(7-Me)]-Q-[Pen]-Phe[4-(2-aminoethoxy)]-[2-Nal]-[a-MeLeu]-[Lys(Ac)]-[(D)His]-[bA]-NH2; Pen-Pen disulfide) [Peptide of SEQ ID NO: 215]	4.94	20
